Target: T1, Recombinant human Dicer (FLAG-Dicer) (human, UniProt Q9UPY3 1-1922)
T1 construct: Dicer, human RNase III enzyme; source: Expi293 cells expressing FLAG-Dicer (University of Michigan Protein core), purified (M2 anti-FLAG resin)
Test: SEC; purified Dicer and TRBP mixed at a 1:3 molar ratio, concentrated, loaded on HiLoad 16/600 Superdex 200 in buffer D (20 mM Tris-HCl pH 8.0, 150 mM NaCl, 2 mM DTT)
Settings: both partners purified

T1 sequence (Q9UPY3 whole entry): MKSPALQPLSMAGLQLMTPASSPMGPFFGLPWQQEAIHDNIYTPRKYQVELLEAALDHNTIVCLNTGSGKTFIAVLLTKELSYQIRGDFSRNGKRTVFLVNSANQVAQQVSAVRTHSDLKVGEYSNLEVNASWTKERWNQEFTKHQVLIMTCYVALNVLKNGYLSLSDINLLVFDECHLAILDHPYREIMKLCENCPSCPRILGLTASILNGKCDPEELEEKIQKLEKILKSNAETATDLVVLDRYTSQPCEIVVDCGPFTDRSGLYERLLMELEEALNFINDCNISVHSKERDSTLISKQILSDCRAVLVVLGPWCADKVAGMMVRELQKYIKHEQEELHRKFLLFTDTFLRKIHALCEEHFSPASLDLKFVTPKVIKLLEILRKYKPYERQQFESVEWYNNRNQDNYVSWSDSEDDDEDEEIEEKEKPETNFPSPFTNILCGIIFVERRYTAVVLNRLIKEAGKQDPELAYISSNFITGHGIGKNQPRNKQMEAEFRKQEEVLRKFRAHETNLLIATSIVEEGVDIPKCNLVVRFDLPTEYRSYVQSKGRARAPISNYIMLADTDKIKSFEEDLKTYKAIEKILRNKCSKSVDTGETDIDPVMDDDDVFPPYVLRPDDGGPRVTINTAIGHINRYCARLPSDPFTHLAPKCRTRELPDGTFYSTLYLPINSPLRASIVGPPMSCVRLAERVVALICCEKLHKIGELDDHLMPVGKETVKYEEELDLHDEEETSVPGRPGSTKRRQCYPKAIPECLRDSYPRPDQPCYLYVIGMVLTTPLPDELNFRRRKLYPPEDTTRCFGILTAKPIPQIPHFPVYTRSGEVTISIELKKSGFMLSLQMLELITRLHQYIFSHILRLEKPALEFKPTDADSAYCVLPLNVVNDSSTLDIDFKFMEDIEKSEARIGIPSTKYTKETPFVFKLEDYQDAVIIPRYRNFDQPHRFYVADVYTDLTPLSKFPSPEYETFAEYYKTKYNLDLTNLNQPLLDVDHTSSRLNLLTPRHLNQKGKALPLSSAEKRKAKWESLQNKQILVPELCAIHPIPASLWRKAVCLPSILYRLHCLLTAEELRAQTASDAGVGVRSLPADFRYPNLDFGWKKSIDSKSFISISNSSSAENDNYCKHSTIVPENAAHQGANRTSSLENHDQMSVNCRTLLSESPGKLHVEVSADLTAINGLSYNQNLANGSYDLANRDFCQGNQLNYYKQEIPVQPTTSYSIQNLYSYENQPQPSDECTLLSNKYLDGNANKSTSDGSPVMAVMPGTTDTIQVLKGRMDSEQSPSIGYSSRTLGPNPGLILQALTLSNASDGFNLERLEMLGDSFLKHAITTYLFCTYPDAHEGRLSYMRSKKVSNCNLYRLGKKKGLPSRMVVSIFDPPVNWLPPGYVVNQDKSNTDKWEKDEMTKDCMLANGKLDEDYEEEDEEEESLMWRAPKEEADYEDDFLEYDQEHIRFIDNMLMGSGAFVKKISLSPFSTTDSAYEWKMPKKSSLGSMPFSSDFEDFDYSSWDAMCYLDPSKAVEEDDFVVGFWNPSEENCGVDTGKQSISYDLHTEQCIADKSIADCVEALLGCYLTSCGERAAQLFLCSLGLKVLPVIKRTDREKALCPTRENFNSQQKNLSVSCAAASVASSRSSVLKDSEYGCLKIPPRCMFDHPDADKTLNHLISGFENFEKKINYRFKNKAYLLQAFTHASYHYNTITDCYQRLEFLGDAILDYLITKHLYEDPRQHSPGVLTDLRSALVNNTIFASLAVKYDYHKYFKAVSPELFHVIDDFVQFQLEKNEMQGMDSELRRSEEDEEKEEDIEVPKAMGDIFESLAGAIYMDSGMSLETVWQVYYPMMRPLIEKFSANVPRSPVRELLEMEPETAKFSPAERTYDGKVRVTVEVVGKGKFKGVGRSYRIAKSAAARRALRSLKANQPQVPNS

binding result: binds
B1: human transactivation response element RNA-binding protein (TRBP) (natural protein, UniProt Q15633 1-366, looked up)
chain: MSEEEQGSGTTTGCGLPSIEQMLAANPGKTPISLLQEYGTRIGKTPVYDLLKAEGQAHQPNFTFRVTVGDTSCTGQGPSKKAAKHKAAEVALKHLKGGSMLEPALEDSSSFSPLDSSLPEDIPVFTAAAAATPVPSVVLTRSPPMELQPPVSPQQSECNPVGALQELVVQKGWRLPEYTVTQESGPAHRKEFTMTCRVERFIEIGSGTSKKLAKRNAAAKMLLRVHTVPLDARDGNEVEPDDDHFSIGVGSRLDGLRNRGPGCTWDSLRNSVGEKILSLRSCSLGSLGALGPACCRVLSELSEEQAFHVSYLDIEELSLSGLCQCLVELSTQPATVCHGSATTREAARGEAARRALQYLKIMAGSK
notes: TRBP, human, from plasmid pET28a-TRBP; The construct is that of Addgene plasmid #50351

Reference: publication doi:10.1101/2025.05.07.652689, “Structural features within precursor microRNA-20a regulate Dicer-TRBP processing” (bioRxiv, 2025)
